Here are results for one substance from patent US20240301062A1.

Assay [1] has as its target human claudin 9 (CLDN9) (human) (UniProt O95484). Description: flow cytometry, CHOK1/human CLDN9-GFP cells. (In general: Flow cytometry measures light scatter and fluorescence of single cells or particles in a stream.)
For the next assay, the target named is mouse CLDN6 (mouse) (UniProt Q9Z262). Nature of the assay: flow cytometry, CHOK1/mouse CLDN6-GFP cells.
The target in assay [2] is human claudin 6 (CLDN6) (human) (UniProt P56747). Description: flow cytometry, PA-1 cells (endogenous CLDN6).
For assay [3] the target is unchanged. Nature of the assay: flow cytometry, CHOK1/human CLDN6-GFP cells.
In a further assay the target is cyno CLDN6 (cyno). Description: flow cytometry, CHOK1/Cyno CLDN6-GFP cells.

human claudin 6 (CLDN6) (human), sequence (P56747 whole entry): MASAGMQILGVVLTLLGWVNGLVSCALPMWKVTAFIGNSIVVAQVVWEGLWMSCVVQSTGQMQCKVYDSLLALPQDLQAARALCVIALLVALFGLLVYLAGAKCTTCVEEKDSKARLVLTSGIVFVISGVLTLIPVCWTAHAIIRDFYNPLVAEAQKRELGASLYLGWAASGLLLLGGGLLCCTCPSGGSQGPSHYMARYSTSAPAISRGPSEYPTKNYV
human claudin 9 (CLDN9) (human), sequence (O95484 whole entry): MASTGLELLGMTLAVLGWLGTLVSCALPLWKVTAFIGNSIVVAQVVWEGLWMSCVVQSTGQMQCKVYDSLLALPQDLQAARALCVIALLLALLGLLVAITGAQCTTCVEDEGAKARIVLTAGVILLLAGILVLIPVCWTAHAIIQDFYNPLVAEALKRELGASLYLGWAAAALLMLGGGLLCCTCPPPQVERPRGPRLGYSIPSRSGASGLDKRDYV
mouse CLDN6 (mouse), sequence (Q9Z262 whole entry): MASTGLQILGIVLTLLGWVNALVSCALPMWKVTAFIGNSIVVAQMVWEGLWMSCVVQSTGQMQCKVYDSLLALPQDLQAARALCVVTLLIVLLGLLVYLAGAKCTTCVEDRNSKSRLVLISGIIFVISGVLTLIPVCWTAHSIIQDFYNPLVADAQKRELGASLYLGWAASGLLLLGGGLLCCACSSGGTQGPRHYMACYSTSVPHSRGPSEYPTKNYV

As for Human IgG1 isotype Ctrl. (antibody), the Emax (MFI) in assay [1] is 26.9 MFI; with mouse CLDN6 (mouse), 41.8 MFI; in assay [2], 34 MFI; in assay [3], 31.1 MFI; in the assay with cyno CLDN6 (cyno), 225 MFI.
